Results published in publication doi:10.1101/2025.06.14.659664 (bioRxiv, 2025).

B1: GBI-Uba7-UFD fusion protein (human Uba7 ubiquitin-fold domain, residues 903-1011), wild type (domain or fragment, UniProt P41226 903-1011, looked up)
chain: IQTFHHLKWTSWDRLKVPAGQPERTLESLLAHLQEQHGLRVRILLHGSALLYAAGWSPEKQAQHLPLRVTELVQQLTGQAPAPGQRVLVLELSCEGDDEDTAFPPLHYE
B2: GBI-Uba7-UFD A1004C mutant (domain or fragment, human, UniProt P41226 903-1011, looked up)
chain: IQTFHHLKWTSWDRLKVPAGQPERTLESLLAHLQEQHGLRVRILLHGSALLYAAGWSPEKQAQHLPLRVTELVQQLTGQAPAPGQRVLVLELSCEGDDEDTCFPPLHYE

Molecular target: UbcH8 (UniProt O14933 1-153)
Sequence (O14933 whole entry): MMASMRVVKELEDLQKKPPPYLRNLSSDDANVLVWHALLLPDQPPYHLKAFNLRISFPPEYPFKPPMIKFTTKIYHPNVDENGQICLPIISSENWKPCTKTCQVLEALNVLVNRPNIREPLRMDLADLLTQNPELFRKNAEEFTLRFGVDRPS
Experiment: NMR titration

| Binder | binding result |
| --- | --- |
| B1 | binds |
| B2 | binds |
